This note sets out measurements from PMC7643339.

Data set [1] addresses mouse TLR9 ectodomain, uncleaved (without proteolytic activation) (mouse) (UniProt Q9EQU3). The experiment in a line: SEC; Superdex 200 10/300, 10 mM Tris pH 7.4, 0.15 M NaCl, no oligonucleotide; last step of the purification. In general terms: In gel filtration, larger molecules generally elute earlier.
In data set [2] the target is T1, mTLR9-ECD, GluC-cleaved (mouse, UniProt Q9EQU3 26-818).
T1 sequence: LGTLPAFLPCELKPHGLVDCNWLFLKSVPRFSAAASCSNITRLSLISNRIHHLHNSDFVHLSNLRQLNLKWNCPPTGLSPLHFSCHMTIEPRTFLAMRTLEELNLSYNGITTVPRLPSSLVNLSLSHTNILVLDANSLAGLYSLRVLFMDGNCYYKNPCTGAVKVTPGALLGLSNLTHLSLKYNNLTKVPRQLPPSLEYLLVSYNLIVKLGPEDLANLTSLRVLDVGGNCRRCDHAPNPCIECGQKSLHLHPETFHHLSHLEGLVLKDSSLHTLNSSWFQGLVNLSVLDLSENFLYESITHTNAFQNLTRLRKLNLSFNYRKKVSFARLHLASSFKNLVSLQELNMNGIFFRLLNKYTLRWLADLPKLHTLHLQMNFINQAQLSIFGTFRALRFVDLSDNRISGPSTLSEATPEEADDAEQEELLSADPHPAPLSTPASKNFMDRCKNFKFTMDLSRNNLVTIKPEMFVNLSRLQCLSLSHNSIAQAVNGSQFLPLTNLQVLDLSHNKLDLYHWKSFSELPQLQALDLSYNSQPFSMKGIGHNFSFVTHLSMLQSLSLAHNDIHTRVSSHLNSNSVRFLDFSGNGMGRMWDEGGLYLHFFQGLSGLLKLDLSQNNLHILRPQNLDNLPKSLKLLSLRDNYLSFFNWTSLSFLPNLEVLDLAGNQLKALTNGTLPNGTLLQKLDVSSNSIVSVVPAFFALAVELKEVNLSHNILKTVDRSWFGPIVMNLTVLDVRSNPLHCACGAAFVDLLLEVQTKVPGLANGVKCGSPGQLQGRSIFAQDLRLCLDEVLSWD
In words: competition; vs Alexa 488 1668-12mer; Anisotropy: 2 or 5 nM Alexa 488 oligo, protein to 100 nM; competition in 10 mM MES pH 6.0, 0.15 M NaCl, room temperature (direct titration buffer not separately).

Data set [3] has as its target T1, mTLR9-ECD, GluC-cleaved. In words: competition; Cheng-Prusoff; vs Alexa 488 1668-12mer; Anisotropy: 2 or 5 nM Alexa 488 oligo, protein to 100 nM; competition in 10 mM MES pH 6.0, 0.15 M NaCl, room temperature (direct titration buffer not separately).
For data set [4], the target named is T1, mTLR9-ECD, GluC-cleaved. The experiment in a line: fluorescence anisotropy; apparent, 1:1 fit; Anisotropy: 2 or 5 nM Alexa 488 oligo, protein to 100 nM; competition in 10 mM MES pH 6.0, 0.15 M NaCl, room temperature (direct titration buffer not separately). (In general: Fluorescence polarisation rises when a labelled molecule tumbles more slowly, as on binding a larger partner.)

The next data set addresses T2, mTLR9-ECD, uncleaved (mouse, UniProt Q9EQU3 26-818).
T2 sequence: T1 sequence
In words: fluorescence anisotropy; 1:1 fit; uncleaved; Anisotropy: 2 or 5 nM Alexa 488 oligo, protein to 100 nM; competition in 10 mM MES pH 6.0, 0.15 M NaCl, room temperature (direct titration buffer not separately).

For data set [5], the target named is T3, mTLR9-ECD E617A/H642A (site B mutant) (mouse, UniProt Q9EQU3 26-818, E617A;H642A).
T3 sequence: T1 sequence with E592A, H617A
The experiment in a line: fluorescence anisotropy; 1:1 fit; reports site A (KA); Anisotropy: 2 or 5 nM Alexa 488 oligo, protein to 100 nM; competition in 10 mM MES pH 6.0, 0.15 M NaCl, room temperature (direct titration buffer not separately).

The target in data set [6] is T4, mTLR9-ECD W96A/Y132A (site A mutant) (mouse, UniProt Q9EQU3 26-818, W96A;Y132A).
T4 sequence: T1 sequence with W71A, Y107A
The experiment in a line: mass photometry; a fraction dimerizes with ligand; Anisotropy: 2 or 5 nM Alexa 488 oligo, protein to 100 nM; competition in 10 mM MES pH 6.0, 0.15 M NaCl, room temperature (direct titration buffer not separately).

The target in data set [7] is T1, mTLR9-ECD, GluC-cleaved. The experiment in a line: fluorescence anisotropy; 1:1 fit; Anisotropy: 2 or 5 nM Alexa 488 oligo, protein to 100 nM; competition in 10 mM MES pH 6.0, 0.15 M NaCl, room temperature (direct titration buffer not separately).
Data set [8] has as its target T1, mTLR9-ECD, GluC-cleaved. The experiment in a line: fluorescence anisotropy; apparent, 1:1 fit; SI text gives 9.2 nM; Anisotropy: 2 or 5 nM Alexa 488 oligo, protein to 100 nM; competition in 10 mM MES pH 6.0, 0.15 M NaCl, room temperature (direct titration buffer not separately).

Where a chain is given by its changes, count along the chain named.

With “mouse TLR9 ectodomain, uncleaved (without proteolytic activation) (from UniProt Q9EQU3 26-818) (domain or fragment)”, the stoichiometry N in data set [1] is 2.

On to CATGACGTTCCT (ssDNA) [1668-12mer, unlabeled], for which the IC50 in the data set with mTLR9-ECD, GluC-cleaved [2] is roughly 10 nM. In the data set with mTLR9-ECD, GluC-cleaved [3], this molecule registered a Ki of 8 nM.

As for TCCTTTCGTTTTTTTTTTTTTTT (ssDNA) [minM (Alexa 488)], in the data set with mTLR9-ECD, GluC-cleaved [4], the Kd stood at 3.2 nM.

As for TCCATGACGTTCCTGATGCT (ssDNA) [1668 (Alexa 488)], the Kd in the data set with mTLR9-ECD, GluC-cleaved [4] was found to be 2.8 nM; with mTLR9-ECD, uncleaved, 12 nM; in [5] it was 40 nM.

Turning to TCCATGACGTTCCTGATGCT (ssDNA) [1668, unlabeled], in [6], the binding result was “binds”.

Take CCTGGATGGGAA (ssDNA) [4084 (printed 4048 in Table 1; Alexa 488)]: the Kd with mTLR9-ECD, GluC-cleaved [7] amounted to 29 nM.

As to CATGACGTTCCT (ssDNA) [1668-12mer (Alexa 488)], in the data set with mTLR9-ECD, GluC-cleaved [8], the Kd was found to be 11 nM.

For orientation: stoichiometry N means the number of molecules, sites or subunits per partner or assembly. The IC50 is the concentration that inhibits the measured activity by half. Read a high IC50 as a need for much substance. One may read the Ki as the dissociation constant of the complex between target and ligand, obtained from inhibition or displacement. Low values mean tighter binding, high ones weaker binding.
